Laboratory results: patent publication US7744887B2, “Human antibodies interacting with HIV gp41” (priority 2004, dated 2010)

What was measured:
[1] = system: HIV-1 (envelope from strain HXB2); experiment: HIV Reporter Particle (HIVRP) assay; type: cell-based; details: envelope from strain HXB2, purified scFvs
[2] = system: CXCR4-tropic HIV-1 strain HXB2; type: cell-based; details: for effect on HIV-HXB2 replication: single cycle infectivity assay, FIG. 9
CCR5-tropic strain BaL = type: cell-based, HIV-1
[3] = system: dual tropic strain (CCR5 and CXCR4) HIV 89.6; type: cell-based, HIV-1
[4] = system: HIV particles pseudotyped with the surface protein of the Vesicular Stomatitis Virus (VSV-G); type: cell-based
IQN17 = experiment: ALPHASCREEN D5 IgG/IQN17 binding assay; parameters: species or system HIV-1
5-Helix [5] = biological target: T1, 5-Helix (Human immunodeficiency virus type 1 group M subtype B, UniProt P04578, C598G/DEL583-596/DEL601-623/N624G); details: Biacore, peptide 5-Helix
Excerpt: (§1) Affinity of D5 IgG for the hydrophobic pocket of HR1—The affinity of D5 IgG for various peptides was next determined by surface plasmon resonance (Biacore).

IZN17 = experiment: Surface plasmon resonance (Biacore), IZN17; type: binding, HIV-1; details: peptide IZN17
Excerpt: as §1

IZN17-G572D = experiment: Surface plasmon resonance (Biacore), IZN17-G572D; type: binding, HIV-1; details: peptide IZN17-G572D
Excerpt: as §1

IZN17-L565M = experiment: Surface plasmon resonance (Biacore), IZN17-L565M; type: binding, HIV-1; details: peptide IZN17-L565M
Excerpt: as §1

IZN17-Q567R = experiment: Surface plasmon resonance (Biacore), IZN17-Q567R; type: binding, HIV-1; details: peptide IZN17-Q567R
Excerpt: as §1

IQN17-2Pro = experiment: Surface plasmon resonance (Biacore), IQN17-2Pro; type: binding, HIV-1; details: peptide IQN17-2Pro
Excerpt: as §1

5-Helix [6] = biological target: T1, 5-Helix; details: ALPHASCREEN, FIG. 10
IZN36 = IZN36 (Human immunodeficiency virus type 1 group M subtype B, UniProt P04578); details: ALPHASCREEN, FIG. 10
[7] = biological target: interaction of biotinylated IZN36 with C34-HA (Human immunodeficiency virus type 1 group M subtype B, UniProt P04578); details: ALPHASCREEN, FIG. 15
HIV strain MN-1 = type: cell-based, HIV-1; details: MN-1, single cycle infectivity assay

B1: B11 scFv: human scFv from phage display, SEQ ID NO:8, VH and VL joined by (G4S)3 linker; binds gp41 HR1 (protein)
scFv: QVQLVQSGAEVKKPGSSVKVSCKASGGTFSSYAISWVRQAPGQGLEWMGGIIPLFDTSNYAQNFQGRITITADKSTSTAYMELSSLRFEDTAIYYCARDNPLLLAMDVWGKGTTVTVSSGGGGSGGGGSGGGGSDIQMTQSPSTLSASIGDRVTITCRASEGIYHWLAWYQQKPGKAPKLLIYKASSLASGAPSRFSGSGSGTDFTLTISSLQPDDFATYYCQQYSNYPLTFGGGTKLEIK
modifications: Homo sapien
**Q.** Which “ability to prevent HIV-1 entry” value [1] does the source give for B1 here?
**A.** capable of inhibiting HIV-1 entry

**Q.** What about the “effect on HIV-HXB2 replication” value [2] of the same molecule?
**A.** displayed anti-viral properties against the HIV—HXB2 strain

B2: D5 IgG: full length human IgG4/kappa carrying D5 VH (SEQ ID NO:4) and VL (SEQ ID NO:6) (antibody, V domains shown)
VH: QVQLVQSGAEVRKPGASVKVSCKASGDTFSSYAISWVRQAPGQGLEWMGGIIPIFGTANYAQKFQGRVTITADESTSTAYMELSSLRSEDTAIYYCARDNPTLLGSDYWGKGTLVTVSS
VL: DIQMTQSPSTLSASIGDRVTITCRASEGIYHWLAWYQQKPGKAPKLLIYKASSLASGAPSRFSGSGSGTDFTLTISSLQPDDFATYYCQQYSNYPLTFGGGTKLEIK
modifications: human IgG4/kappa constant regions; Homo sapien
**Q.** How did the “fold more sensitive than HXB2” value (CCR5-tropic strain BaL; BaL versus HXB2) turn out when B2 was run?
**A.** approximately 3 fold

**Q.** And the “fold less susceptible to neutralization than HXB2” value ([3]; 89.6 versus HXB2)?
**A.** approximately 6 fold

**Q.** What about the IC50 [4] of the same molecule?
**A.** Not active

**Q.** And the “interaction with biotinylated IQN17” value (IQN17)?
**A.** evident interaction

**Q.** And the Off (5-Helix [5])?
**A.** 1.0e−4 1/S

**Q.** What about the On (5-Helix [5]) of the same molecule?
**A.** 390000 M⁻¹ s⁻¹

**Q.** And the Kd (IZN17)?
**A.** 0.1 nM

**Q.** And the Off (IZN17)?
**A.** 5.9e−4 1/S

**Q.** What about the On (IZN17) of the same molecule?
**A.** 6.1e+06 M⁻¹ s⁻¹

**Q.** What about the Kd (IZN17-G572D) of the same molecule?
**A.** 550 nM

**Q.** And the Off (IZN17-G572D)?
**A.** 3.0e−3 1/S

**Q.** And the On (IZN17-G572D)?
**A.** 5500 M⁻¹ s⁻¹

**Q.** What about the Kd (IZN17-L565M) of the same molecule?
**A.** 0.3 nM

**Q.** What about the Off (IZN17-L565M) of the same molecule?
**A.** 8.9e−4 1/S

**Q.** What about the On (IZN17-L565M) of the same molecule?
**A.** 3e+06 M⁻¹ s⁻¹

**Q.** And the Kd (IZN17-Q567R)?
**A.** 1.5 nM

**Q.** What about the Off (IZN17-Q567R) of the same molecule?
**A.** 1.2e−3 1/S

**Q.** What about the On (IZN17-Q567R) of the same molecule?
**A.** 800000 M⁻¹ s⁻¹

**Q.** What about the Kd (IQN17-2Pro) of the same molecule?
**A.** 240 nM

**Q.** And the Off (IQN17-2Pro)?
**A.** 2.2e−3 1/S

**Q.** And the On (IQN17-2Pro)?
**A.** 9000 M⁻¹ s⁻¹

**Q.** And the “interaction with biotinylated 5-Helix” value (5-Helix [6])?
**A.** clear interaction

**Q.** And the “interaction with biotinylated IZN36” value (IZN36)?
**A.** clear interaction

**Q.** What about the “effect on the interaction of C34-HA with IZN36” value [7] of the same molecule?
**A.** prevented the interaction of C34-HA with IZN36

B3: B11 IgG: full length human IgG1/kappa carrying B11 VH (SEQ ID NO:10) and VL (SEQ ID NO:12) (antibody, V domains shown)
VH: QVQLVQSGAEVKKPGSSVKVSCKASGGTFSSYAISWVRQAPGQGLEWMGGIIPLFDTSNYAQNFQGRITITADKSTSTAYMELSSLRFEDTAIYYCARDNPLLLAMDVWGKGTTVTVSS
VL: B2 VL
modifications: human IgG1/kappa constant regions; Homo sapien
**Q.** Which IC50 ([2]; HIV-HXB2, single cycle infectivity assay) does the source give for B3 here?
**A.** 290 nM

**Q.** And the IC50 (CCR5-tropic strain BaL; HIV-BaL, single cycle infectivity assay)?
**A.** 73 nM

**Q.** And the IC50 ([3]; HIV 89.6, single cycle infectivity assay)?
**A.** 943 nM

**Q.** What about the IC50 (HIV strain MN-1) of the same molecule?
**A.** 244 nM

B4: D5 scFv: human scFv from phage display, SEQ ID NO:2, VH and VL joined by (G4S)3 linker; binds gp41 HR1 hydrophobic pocket (protein)
scFv: QVQLVQSGAEVRKPGASVKVSCKASGDTFSSYAISWVRQAPGQGLEWMGGIIPIFGTANYAQKFQGRVTITADESTSTAYMELSSLRSEDTAIYYCARDNPTLLGSDYWGKGTLVTVSSGGGGSGGGGSGGGGSDIQMTQSPSTLSASIGDRVTITCRASEGIYHWLAWYQQKPGKAPKLLIYKASSLASGAPSRFSGSGSGTDFTLTISSLQPDDFATYYCQQYSNYPLTFGGGTKLEIK
modifications: Homo sapien
**Q.** With B4 as the molecule, how does the “ability to prevent HIV-1 entry” value [1] read?
**A.** capable of inhibiting HIV-1 entry

**Q.** And the “effect on HIV-HXB2 replication” value [2]?
**A.** inhibited HIV—HXB2 replication

**Q.** And the “effect on HIV-BaL replication” value (CCR5-tropic strain BaL; single cycle infectivity assay)?
**A.** inhibited replication of HIV-BaL

**Q.** And the “prevention of infection by VSV-G pseudotyped particles” value [4]?
**A.** Neither D5 nor X5 scFvs prevented infection
